Molecular target: the molecule itself
Experiment: FRET or BRET

| Protein | binding result |
| --- | --- |
| FtsA WT(1-405)-6xHis (domain or fragment) MIKATDRKLVVGLEIGTAKVAALVGEVLPDGMVNIIGVGSCPSRGMDKGGVNDLESVVKCVQRAIDQAELMADCQISSVYLALSGKHISCQNEIGMVPISEEEVTQEDVENVVHTAKSVRVRDEHRVLHVIPQEYAIDYQEGIKNPVGLSGVRMQAKVHLITCHNDMAKNIVKAVERCGLKVDQLIFAGLASSYSVLTEDERELGVCVVDIGGGTMDIAVYTGGALRHTKVIPYAGNVVTSDIAYAFGTPPSDAEAIKVRHGCALGSIVGKDESVEVPSVGGRPPRSLQRQTLAEVIEPRYTELLNLVNEEILQLQEKLRQQGVKHHLAAGIVLTGGAAQIEGLAACAQRVFHTQVRIGAPLNITGLTDYAQEPYYSTAVGLLHYGKESHLNGEAEVEKRVTASV | binds |
| FtsA R286W (1-405)-6xHis (domain or fragment) MIKATDRKLVVGLEIGTAKVAALVGEVLPDGMVNIIGVGSCPSRGMDKGGVNDLESVVKCVQRAIDQAELMADCQISSVYLALSGKHISCQNEIGMVPISEEEVTQEDVENVVHTAKSVRVRDEHRVLHVIPQEYAIDYQEGIKNPVGLSGVRMQAKVHLITCHNDMAKNIVKAVERCGLKVDQLIFAGLASSYSVLTEDERELGVCVVDIGGGTMDIAVYTGGALRHTKVIPYAGNVVTSDIAYAFGTPPSDAEAIKVRHGCALGSIVGKDESVEVPSVGGRPPWSLQRQTLAEVIEPRYTELLNLVNEEILQLQEKLRQQGVKHHLAAGIVLTGGAAQIEGLAACAQRVFHTQVRIGAPLNITGLTDYAQEPYYSTAVGLLHYGKESHLNGEAEVEKRVTASV | binds |
| FtsA WT (natural protein) MIKATDRKLVVGLEIGTAKVAALVGEVLPDGMVNIIGVGSCPSRGMDKGGVNDLESVVKCVQRAIDQAELMADCQISSVYLALSGKHISCQNEIGMVPISEEEVTQEDVENVVHTAKSVRVRDEHRVLHVIPQEYAIDYQEGIKNPVGLSGVRMQAKVHLITCHNDMAKNIVKAVERCGLKVDQLIFAGLASSYSVLTEDERELGVCVVDIGGGTMDIAVYTGGALRHTKVIPYAGNVVTSDIAYAFGTPPSDAEAIKVRHGCALGSIVGKDESVEVPSVGGRPPRSLQRQTLAEVIEPRYTELLNLVNEEILQLQEKLRQQGVKHHLAAGIVLTGGAAQIEGLAACAQRVFHTQVRIGAPLNITGLTDYAQEPYYSTAVGLLHYGKESHLNGEAEVEKRVTASVGSWIKRLNSWLRKEF | binds |

— article doi:10.1101/2021.11.08.467681 (bioRxiv, 2021)
